Where two headings read alike, the source gives them in different places.
What was measured:
[1] = biological target: rhOP-1 (BMP-7) (Homo sapiens) (UniProt P18075); assay: SPR; conditions: cited from earlier work
rhTGF-β (Homo sapiens) = rhTGF-β (Homo sapiens) (UniProt P01137); assay: SPR; conditions: cited from earlier work
rhBMP-2 (Homo sapiens) [2] = biological target: rhBMP-2 (Homo sapiens) (UniProt P12643); assay: SPR; conditions: cited from earlier work
[3] = biological target: Recombinant human transforming growth factor-β1 (TGF-β1) (human) (UniProt P01137); assay: SPR; Biacore T-100, CM5 chip, amine coupling, HBS-EP running buffer; TGF-β immobilised as ligand, Spp24 proteins as analytes; five concentrations of each analyte; kinetic constants by the manufacturer's software
rhBMP-2 (Homo sapiens) [4] = biological target: rhBMP-2 (Homo sapiens) (UniProt P12643); conditions: cited from earlier work
TGF-β1 (Homo sapiens) = TGF-β1 (Homo sapiens) (UniProt P01137); conditions: cited from earlier work
rhBMP-2 (Homo sapiens) [5] = biological target: rhBMP-2 (Homo sapiens) (UniProt P12643); conditions: cited from earlier work; remark: listed apart in the source

rhBMP-2 (Homo sapiens), sequence (P12643 283-396): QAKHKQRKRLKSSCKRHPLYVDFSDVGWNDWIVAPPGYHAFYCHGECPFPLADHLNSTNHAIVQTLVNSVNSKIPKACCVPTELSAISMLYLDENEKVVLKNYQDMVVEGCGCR
Spp18.1, C-terminal truncation product of Spp24 (domain or fragment), sequence (Q27967 24-203): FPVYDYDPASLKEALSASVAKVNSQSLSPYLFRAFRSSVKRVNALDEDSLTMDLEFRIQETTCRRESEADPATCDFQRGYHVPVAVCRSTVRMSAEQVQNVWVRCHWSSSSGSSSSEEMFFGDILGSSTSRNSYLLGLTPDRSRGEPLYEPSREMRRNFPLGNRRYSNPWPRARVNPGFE
Spp14.5, C-terminal truncation product of Spp24 (domain or fragment), sequence (Q27967 24-203): as above
Spp16.0, C-terminal truncation product of Spp24 (domain or fragment), sequence (Q27967 24-203): as above
Recombinant human transforming growth factor-β1 (TGF-β1) (human), sequence (P01137 279-390): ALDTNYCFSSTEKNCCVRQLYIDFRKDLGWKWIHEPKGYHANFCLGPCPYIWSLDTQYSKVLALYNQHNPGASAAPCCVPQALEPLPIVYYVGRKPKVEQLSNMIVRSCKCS
fetuin TRH1 peptide, sequence (P12763 114-133): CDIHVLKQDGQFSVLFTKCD
rhOP-1 (BMP-7) (Homo sapiens), sequence (P18075 293-431): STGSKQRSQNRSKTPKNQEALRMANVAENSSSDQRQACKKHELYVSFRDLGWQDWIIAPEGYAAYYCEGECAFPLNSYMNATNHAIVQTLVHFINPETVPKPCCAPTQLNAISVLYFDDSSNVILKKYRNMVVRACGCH
rhTGF-β (Homo sapiens), sequence (P01137 279-390): as the sequence (P01137 279-390) above
TGF-β1 (Homo sapiens), sequence (P01137 279-390): as above

| Substance | Kd [3] | koff [3] | kon [3] | other results |
| --- | --- | --- | --- | --- |
| BMP Binding Peptide (BBP) TRH1 domain (from UniProt Q27967) | – | – | – | Kd [1]: 0.0116 µM; Kd (rhTGF-β (Homo sapiens)): 0.068 µM; Kd (rhBMP-2 (Homo sapiens) [2]): 0.0533 µM |
| Spp18.1, C-terminal truncation product of Spp24 (domain or fragment) | 1.39 µM | 0.0106 s⁻¹ | 10000 M⁻¹ s⁻¹ | – |
| Spp24 TRH1 peptide (BBP) | – | – | – | Kd (rhBMP-2 (Homo sapiens) [4]): 30 µM |
| fetuin TRH1 peptide | – | – | – | Kd (TGF-β1 (Homo sapiens)): > 10 µM; Kd (rhBMP-2 (Homo sapiens) [5]): 2.4 µM |

More lines, main results first:

| Kd [3] | koff [3] | kon [3] | Substance | other results |
| --- | --- | --- | --- | --- |
| 1.41 µM | 0.00589 s⁻¹ | 4180 M⁻¹ s⁻¹ | Spp14.5, C-terminal truncation product of Spp24 (domain or fragment) | – |
| 3.25 µM | 0.0122 s⁻¹ | 5550 M⁻¹ s⁻¹ | Spp16.0, C-terminal truncation product of Spp24 (domain or fragment) | – |
